Reference: the supplement of paper PMC10065799, “High-throughput profiling of sequence recognition by tyrosine kinases and SH2 domains using bacterial peptide display” (eLife, 2023)
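Note: 11-residue human phosphosite peptides and single-mutation variants displayed on the E. coli surface, counted by deep sequencing, each peptide's frequency after selection divided by its frequency in the unselected input library; frequency after pTyr selection over input frequency; kinase dosed for 20-30% of maximal phosphorylation in three min.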

These sequences were tested on AncSZ (assay: phosphorylation enrichment, bacterial display (enrichment ratio); higher = better substrate or ligand; peptides without Tyr show the background).
HHIDYYKETTN [FGFR1_Y654_K656E] was tested, and the phosphorylation enrichment was 1.13.
Work on FTDPFYDFEIE [ZC3H18_Y372_A368T_YF] yielded a phosphorylation enrichment of 1.37.
HSPLRYTSILT [OR51B6_Y130_R125H] showed a phosphorylation enrichment of 0.915.
IKNSGYISRFL [EIF2AK3_Y585_YF] gave a phosphorylation enrichment of 0.564.
IKKLIYVHLVI [JAGN1_Y42] was tested, and the phosphorylation enrichment was 1.02.
Work on FFCKFYNKSED [RYR1_Y4864_R4861C] yielded a phosphorylation enrichment of 1.3.
For RLNCIYYKDQT [RS1_Y165_W163C], the phosphorylation enrichment was 1.01.
ASNFNYFFHRE [KCNA1_Y413_V408A_YF] gave a phosphorylation enrichment of 1.03.
For RGRSTYYWPRP [GAGE12J_Y9], the phosphorylation enrichment was 0.869.
For EEGNPYYSSAR [MCCC2_Y520], the phosphorylation enrichment was 1.09.
With DIPIRYSIMGV [CDH4_Y205_T208M] the phosphorylation enrichment was 1.13.
For RQQEDYLLFKQ [RARRES1_Y159_YF], the phosphorylation enrichment was 1.57.
In the case of LKGQVDILGRE [ASS1_Y359_Y359D], the phosphorylation enrichment is reported as 0.803.
Sequence QDRTFYERVRT [SPEN_Y633_S635R_YF] has a phosphorylation enrichment of 0.583.
KKYPDYIQSAM [SGMS2_Y59_I62S] gave a phosphorylation enrichment of 0.839.
With TTASRYLKVSD [MYOM2_Y871_N869S] the phosphorylation enrichment was 0.489.
SYPHEYGSQEG [RBM10_Y48_R46H] was tested, and the phosphorylation enrichment was 0.835.
Sequence FAELVYTGFWH [ASS1_Y322] has a phosphorylation enrichment of 1.54.
In the case of RALLNYIASKF [GSTA3_Y74_I71L_YF], the phosphorylation enrichment is reported as 1.13.
IHHIDYYKKTT [FGFR1_Y653] gave a phosphorylation enrichment of 0.783.
MARDIYQASYY [LTK_Y672_R673Q] showed a phosphorylation enrichment of 1.04.
Sequence KFWREYILSLE [GPC3_Y299_YF] has a phosphorylation enrichment of 0.999.
In the case of KGELCYMHSRV [ABCD1_Y281_R280C], the phosphorylation enrichment is reported as 0.813.
SFMVRYNQPRV [GRIN2D_Y736_YF] showed a phosphorylation enrichment of 0.832.
In the case of EMTAEYTCTRK [ACAD9_Y325_A326T], the phosphorylation enrichment is reported as 1.14.
Work on IFHLSYIHNCE [PDE6B_Y227_L228I_YF] yielded a phosphorylation enrichment of 1.16.
With PGAGHYEDTIL [ALK_Y1604] the phosphorylation enrichment was 1.15.
With LLKAGYHGVLR [TTPA_Y100] the phosphorylation enrichment was 0.964.
Sequence KPRKLYTIKKP [BRD2_Y715_P714L] has a phosphorylation enrichment of 0.608.
Work on GHNDVYISKHV [GRIN2A_Y1423_E1426K] yielded a phosphorylation enrichment of 0.373.
Sequence VASIFYTLVIP [OR8K3_Y277] has a phosphorylation enrichment of 1.83.
Sequence SHNELYYEAAE [VANGL1_Y344_E347A] has a phosphorylation enrichment of 1.6.
Work on DVRQEYPGMIL [PLXND1_Y616] yielded a phosphorylation enrichment of 0.675.

The sequences below were run against EPHB1 (UniProt P54762) in the same assay as above.
Chain of EPHB1 (P54762 whole entry, looked up): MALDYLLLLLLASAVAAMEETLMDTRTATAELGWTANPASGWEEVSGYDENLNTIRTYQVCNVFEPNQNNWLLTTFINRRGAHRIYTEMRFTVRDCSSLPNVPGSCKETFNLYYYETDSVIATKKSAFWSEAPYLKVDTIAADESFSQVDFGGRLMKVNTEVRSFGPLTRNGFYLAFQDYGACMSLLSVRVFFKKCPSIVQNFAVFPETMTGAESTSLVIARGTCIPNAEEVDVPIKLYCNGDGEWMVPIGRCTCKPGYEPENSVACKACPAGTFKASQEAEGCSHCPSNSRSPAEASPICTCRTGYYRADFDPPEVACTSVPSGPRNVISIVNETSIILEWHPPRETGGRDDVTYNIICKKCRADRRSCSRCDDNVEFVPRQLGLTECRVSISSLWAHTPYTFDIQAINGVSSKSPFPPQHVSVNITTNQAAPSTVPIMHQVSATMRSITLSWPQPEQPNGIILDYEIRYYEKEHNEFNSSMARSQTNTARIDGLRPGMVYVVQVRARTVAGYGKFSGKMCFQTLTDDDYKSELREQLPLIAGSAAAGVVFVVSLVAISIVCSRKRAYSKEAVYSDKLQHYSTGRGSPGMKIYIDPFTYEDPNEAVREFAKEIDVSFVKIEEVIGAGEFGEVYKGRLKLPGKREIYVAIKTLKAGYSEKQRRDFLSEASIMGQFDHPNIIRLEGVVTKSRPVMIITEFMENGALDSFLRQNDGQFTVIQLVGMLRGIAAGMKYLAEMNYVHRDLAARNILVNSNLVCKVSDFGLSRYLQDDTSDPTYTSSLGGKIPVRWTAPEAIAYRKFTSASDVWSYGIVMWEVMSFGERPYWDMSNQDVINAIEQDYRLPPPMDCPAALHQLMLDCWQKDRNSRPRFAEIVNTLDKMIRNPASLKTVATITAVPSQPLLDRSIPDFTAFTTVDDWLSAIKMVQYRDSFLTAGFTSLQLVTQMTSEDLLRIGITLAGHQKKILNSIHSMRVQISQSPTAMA
Sequence HHIDYYKETTN [FGFR1_Y654_K656E] has a phosphorylation enrichment of 1.03.
FTDPFYDFEIE [ZC3H18_Y372_A368T_YF] showed a phosphorylation enrichment of 1.54.
HSPLRYTSILT [OR51B6_Y130_R125H] showed a phosphorylation enrichment of 0.782.
With IKNSGYISRFL [EIF2AK3_Y585_YF] the phosphorylation enrichment was 0.366.
In the case of IKKLIYVHLVI [JAGN1_Y42], the phosphorylation enrichment is reported as 0.669.
FFCKFYNKSED [RYR1_Y4864_R4861C] showed a phosphorylation enrichment of 0.712.
RLNCIYYKDQT [RS1_Y165_W163C] gave a phosphorylation enrichment of 0.722.
ASNFNYFFHRE [KCNA1_Y413_V408A_YF] showed a phosphorylation enrichment of 0.511.
For RGRSTYYWPRP [GAGE12J_Y9], the phosphorylation enrichment was 0.656.
For EEGNPYYSSAR [MCCC2_Y520], the phosphorylation enrichment was 0.499.
With DIPIRYSIMGV [CDH4_Y205_T208M] the phosphorylation enrichment was 0.473.
With RQQEDYLLFKQ [RARRES1_Y159_YF] the phosphorylation enrichment was 1.11.
LKGQVDILGRE [ASS1_Y359_Y359D] gave a phosphorylation enrichment of 0.539.
QDRTFYERVRT [SPEN_Y633_S635R_YF] showed a phosphorylation enrichment of 0.416.
KKYPDYIQSAM [SGMS2_Y59_I62S] showed a phosphorylation enrichment of 0.543.
TTASRYLKVSD [MYOM2_Y871_N869S] showed a phosphorylation enrichment of 0.347.
With SYPHEYGSQEG [RBM10_Y48_R46H] the phosphorylation enrichment was 0.483.
Sequence FAELVYTGFWH [ASS1_Y322] has a phosphorylation enrichment of 2.21.
RALLNYIASKF [GSTA3_Y74_I71L_YF] was tested, and the phosphorylation enrichment was 0.763.
Sequence IHHIDYYKKTT [FGFR1_Y653] has a phosphorylation enrichment of 0.408.
With MARDIYQASYY [LTK_Y672_R673Q] the phosphorylation enrichment was 2.55.
Sequence KFWREYILSLE [GPC3_Y299_YF] has a phosphorylation enrichment of 0.552.
KGELCYMHSRV [ABCD1_Y281_R280C] showed a phosphorylation enrichment of 0.597.
For SFMVRYNQPRV [GRIN2D_Y736_YF], the phosphorylation enrichment was 0.557.
EMTAEYTCTRK [ACAD9_Y325_A326T] gave a phosphorylation enrichment of 0.674.
In the case of IFHLSYIHNCE [PDE6B_Y227_L228I_YF], the phosphorylation enrichment is reported as 0.699.
In the case of PGAGHYEDTIL [ALK_Y1604], the phosphorylation enrichment is reported as 0.871.
Work on LLKAGYHGVLR [TTPA_Y100] yielded a phosphorylation enrichment of 0.686.
For KPRKLYTIKKP [BRD2_Y715_P714L], the phosphorylation enrichment was 0.374.
For GHNDVYISKHV [GRIN2A_Y1423_E1426K], the phosphorylation enrichment was 0.254.
VASIFYTLVIP [OR8K3_Y277] showed a phosphorylation enrichment of 0.978.
SHNELYYEAAE [VANGL1_Y344_E347A] showed a phosphorylation enrichment of 1.
With DVRQEYPGMIL [PLXND1_Y616] the phosphorylation enrichment was 0.413.
